Results: patent US20150140000A1 (INNATE PHARMA, published 2015)

Key:
[1] = biological target: wild-type human TLR3 ECD-CD32 construct (V5-TLR3-CD32) on HEK293T cells (human); assay: flow cytometry, 293T cells expressing TLR3/CD32 solely at the surface, neutral pH
Experimental: Following two wash cycles, cell MFI was analyzed on a FACS Canto II cytometer.

[2] = biological target: T1, recombinant human His-tagged TLR3 extracellular domain protein (human, UniProt O15455 24-704); assay: SPR (Biacore T100), bivalent affinity, TLR3-His immobilized, pH 5.6; pH 5.6
T1 construct: Bought protein; also called TLR3-His; recombinant human TLR3; not shown: His tag

[3] = biological target: T1, recombinant human His-tagged TLR3 …; assay: SPR (Biacore T100), bivalent affinity, TLR3-His immobilized, pH 7.2; pH 7.2
Experimental: For bivalent affinity measurement, unless indicated otherwise, TLR3-His protein was immobilized on a Sensor Chip CM5 (carboxymethylated dextran layer) by amine coupling. […] The resulting sensorgrams were analysed by global fitting using the appropriate model.
Binding to TLR3 at neutral (pH 7.2) and acid (pH 5.6) conditions, and KD values were calculated.

Row | Binder | EC50 [1] [µg/mL] | Kd [2] [nM] | Kd [3] [nM]
1 | antibody 7G11 (antibody, V domains shown, Rat monoclonal from LOU/c immunization #2; also called clone 7G11) VH: EVQLQQYGAELGKPGTSVKLSCKVSGYNITYTYMHWVNQRPGKGLEWIGRIDPANGNTIYGEKFKNKATLTADTSSNTAYMQLSQLKSDDTAIYFCAMGEFDYFDHWGQGVMVTVSS VL: DIQMTQSPASLSASLGETVSIECLASEDISNDLAWYQQKSGKSPQVLIYAASRLEDGVPSRFSGSGSGTRYSLKISGMQPEDEADYFCQQSYKYPVTFGSGTKLEIK | 0.021 |  | 
2 | antibody 11E1 (antibody, V domains shown, Mouse monoclonal from Balb/c immunization #1; also called clone 11E1) VH: QVQLQQPGAELVRPGASVKLSCKASGYTFTNYWMNWVKQRPGQGLEWIGMIDPSDSETHYNQMFKDKATLTVDKSSSTAYMQLSSLTSEDSAVYYCARGGASSDYYYFDYWGQGTTLTVSSASTK VL: ETTVTQSPASLSMAIGEKVTIRCITSTDIHDDINWYQQKPGEPPKLLISEGNTLRPGVPSRFSSSGYGTDFVFTIENMLSEDVADYYCLQSDNLPRTFGGGTKLEIKRT | 0.016 | 1 | 0.0875

More lines, now with the values ahead:

Row | EC50 [1] [µg/mL] | Kd [2] [nM] | Kd [3] [nM] | Binder
3 | 0.026 |  |  | antibody 31F6 (antibody, V domains shown, Rat monoclonal from LOU/c immunization #2; also called clone 31F6) VH: EVQLQQSGAELGKPGTSVKLSCKVSGYNIRYTYMHWVNQRPGKGLEWIGRIDPANGDSIYGEDFKTKATLTADTSSNTAYMQLSQLKSDDTAIYFCAMGEFDYFDYWGQGVMVTVSSASTK VL: DIQMTQSPPSLSASLGETVSIECLASEGISNDLAWYQQRSGKSPQLLIYAASRLQDGVPSRFSGSGSGTRYSLKISGMQPEDEADYFCQQNYKYPLTFGSGTKLEIK
4 | 0.037 |  |  | antibody 32C4 (antibody, V domains shown, Rat monoclonal from LOU/c immunization #2; also called clone 32C4) VH: EVQLQQYGAELGKPGTSVKLSCKVSGYNIWSTYIYWVNQRPGKGLEWIGRIDPANGNTIYAEKFKTKATLTADTSSNTAYMQLSQLKSDDTAIYFCAMGDHGGYVMDAWGQGASVTVSS VL: DIQMTQSPGSLSASLGETVSIECLASEDIYSYLAWYQQKPGKSPQLLIYAANRLEDGVPSRFSGSGSGTQYSLKISGMQPEDEGDYFCLQGSEFPYTFGTGTKLELK
